This note sets out measurements from the RNAGym collection of RNA variant scans (doi:10.7554/elife.90254).

Sequences and labels used below:
B1: LINE1-full (parent)
chain: UACGUAGGUGGUUUUCCCCUGAUAGUGCUAAGGGGGCCUGGAAGUUUGGACUGGGCAGAGCUCAACACAGCGUGGCAAAGUGGCUGUGGCUAGACUGCCUCUCUGGAUUCCUCGUCACUCAGCAGGGCAUCUCUGAGAGAAAUGCC

Variants of B1 are the subject of the data set. As to the kind of experiment: self-cleavage, relative activity (ratio to wild type); higher = more cleavage; in vitro, sequencing; the parent is a self-cleaving ribozyme.
Turning to A50G U134C, the self-cleavage worked out at 0.86.
As to A50G U134G, the self-cleavage was 0.19.
For C51U U85C, the self-cleavage was 0.19.
Regarding C51A U109C, the self-cleavage was 1.35.
For the variant A50U A141G, the self-cleavage is 0.68.
For the variant A50U U73A, the self-cleavage was determined as 0.89.
For A50G U62C, the self-cleavage was determined as 0.1.
Consider A50G U62A, for which the self-cleavage was determined as 0.09.
With A50G U62G, the self-cleavage amounted to 0.1.
For C51U C131A, the self-cleavage worked out at 1.23.
Take U52A U87C: the self-cleavage was 0.29.
The same measure for U52A C123U: 1.11; for A50U U112A: 1.15.
In the case of C51U G89U, the self-cleavage was 0.03.
With A50G G122U, the self-cleavage came to 1.09.
Take U52A U104C: the self-cleavage came out at 1.36.
On to U52A U104A, for which the self-cleavage is 2.03.
Take U52A U104G: the self-cleavage came out at 1.53.
As to C51A A67U, the self-cleavage was found to be 0.1.
For the variant C51A A67G, the self-cleavage was 0.63.
With A50G U112A, the self-cleavage was 1.02.
The same measure for C51A A140G: 1.04; for A50U A64G: 0.16; for A50G U102G: 0.51.
For the variant A50G U91C, the self-cleavage was 0.35.
Turning to A50U U85C, the self-cleavage amounted to 0.14.
The same measure for U52A G127A: 1.63.
The figure for U52A A129G is 1.3; for U52A U81A it is 1.49; for U52A C131U it is 1.46.
For A50U A136U, the self-cleavage worked out at 1.21.
On to C51U A78U, for which the self-cleavage turned out to be 2.19.
Turning to C51U A78G, the self-cleavage stood at 1.09.
Regarding C51G U96A, the self-cleavage worked out at 0.05.
For the variant A50U C111U, the self-cleavage was found to be 0.77.
The figure for U52A U100A is 1.29; for A50G G139U it is 0.37.
The same measure for A50U C120A: 1.46; for A50U U108G: 1.11.
Consider U52A A140G, for which the self-cleavage came out at 1.08.
As to C51U A117G, the self-cleavage turned out to be 1.5.
With C51U A117C, the self-cleavage is 1.28.
For the variant A50G U143A, the self-cleavage came out at 1.7.
As to A50G U143C, the self-cleavage was determined as 0.95.
The figure for A50G U96A is 0.04; for A50G U96C it is 0.1; for A50G U130C it is 1.05.
On to C51G, for which the self-cleavage came to 1.63.
As for C51A, the self-cleavage amounted to 1.31.
Consider C51U, for which the self-cleavage was 1.3.
As for A50U C66U, the self-cleavage was found to be 0.01.
Consider U52C A59G, for which the self-cleavage came out at 0.16.
Take A50U U96G: the self-cleavage amounted to 0.3.
With A50U U96C, the self-cleavage stood at 0.1.
Regarding A50U U96A, the self-cleavage amounted to 0.03.
The figure for A50G U132G is 1.15; for A50G U132A it is 1.34; for U52A A67G it is 0.38.
As for U52A A67U, the self-cleavage stood at 0.05.
On to U52A G135C, for which the self-cleavage is 1.82.
As for A50U A69U, the self-cleavage is 0.07.
U52A U112C: the self-cleavage was 1.43.
Consider C51U U119C, for which the self-cleavage came out at 1.73.
The figure for A50G G125A is 0.39; for U52A G54U it is 1.84.
Regarding C51A A57G, the self-cleavage was determined as 0.48.
The same measure for U52A G144A: 1.44; for U52A G58A: 0.
With U52A G137A, the self-cleavage was found to be 0.99.
As to U52A G137U, the self-cleavage worked out at 1.06.
As for U52A C113A, the self-cleavage is 1.24.
Turning to A50G U52A, the self-cleavage came to 0.91.
With U52A U91G, the self-cleavage is 0.08.
The same measure for A50U U143A: 1.47; for U52A U85A: 0.1; for U52A U85G: 0.22.
For the variant C51A U96A, the self-cleavage was 0.11.
Consider U52A C84U, for which the self-cleavage turned out to be 0.14.
The figure for U52A A92G is 0.11; for C51U U62A it is 0.07; for U52A A107G it is 0.98.
With A50G G114A, the self-cleavage amounted to 0.98.
The same measure for A50U G74U: 1.04.
Regarding A50U A138C, the self-cleavage came out at 1.21.
For the variant A50U A138U, the self-cleavage was 1.16.
As for U52A U102A, the self-cleavage was determined as 1.03.
Turning to C51U G127A, the self-cleavage was 1.35.
The same measure for A50U G55A: 0.08; for A50G G89A: 0.06; for U52A U130C: 1.42.
Consider A50U U119A, for which the self-cleavage worked out at 0.83.
The figure for A50U U119C is 1.47; for U52A C111A it is 1.25.
Take U52A A138G: the self-cleavage amounted to 1.57.
With U52A A142G, the self-cleavage is 1.46.
In the case of U52A U132C, the self-cleavage was 1.48.
Turning to U52A U132A, the self-cleavage was 1.18.
In the case of C51G U62C, the self-cleavage was determined as 0.08.
In the case of A50U A94G, the self-cleavage turned out to be 0.29.
In the case of A50G G74A, the self-cleavage was determined as 0.48.
The same measure for A50U: 1; for A50G G97A: 0.06.
For the variant A50U U100A, the self-cleavage was 0.31.
For A50U U100C, the self-cleavage came out at 0.81.
The figure for A50U U62A is 0.01; for A50G G88A it is 0.06; for U52A A79G it is 1.09.
Take A50U G80C: the self-cleavage was determined as 0.82.
C51U U96C: the self-cleavage was 0.12.
Turning to C51U U104A, the self-cleavage is 1.02.
For the variant A50U A65G, the self-cleavage was 0.06.
For the variant U52A A65G, the self-cleavage was determined as 0.04.
The same measure for U52A A65U: 0.21.
A50U A77U: the self-cleavage worked out at 0.83.
Regarding A50U A77G, the self-cleavage was found to be 0.43.
The figure for U52A A64U is 0.46.
Take C51U A140G: the self-cleavage came out at 1.09.
As for A50G U109C, the self-cleavage was 0.96.
Regarding A50G U109A, the self-cleavage was found to be 0.84.
As for U52A A94U, the self-cleavage came to 0.52.
In the case of U52A A94G, the self-cleavage turned out to be 0.33.
With U52A U108C, the self-cleavage amounted to 1.66.
Take U52A A121G: the self-cleavage came to 1.74.
As to C51U A67C, the self-cleavage amounted to 0.05.
Consider U52A U109C, for which the self-cleavage turned out to be 1.21.
As for A50G U119C, the self-cleavage was determined as 1.11.
U52A U134A: the self-cleavage is 1.04.
Regarding U52A U134C, the self-cleavage was 2.25.
The figure for A50U A124U is 1.11.
Regarding A50U U134C, the self-cleavage turned out to be 0.98.
In the case of A50U U134A, the self-cleavage was 0.92.
On to C51A C111U, for which the self-cleavage was determined as 1.07.
The same measure for C51U A129U: 1.63; for C51U A124U: 2.12; for C51A A107U: 1.3.
Consider U52A A141C, for which the self-cleavage turned out to be 1.48.
Consider U52A A141U, for which the self-cleavage stood at 1.35.
Consider C51A G53A, for which the self-cleavage stood at 1.92.
As for A50G U104A, the self-cleavage came to 0.85.
On to U52A A77G, for which the self-cleavage amounted to 2.06.
As to A50U C63U, the self-cleavage came out at 0.2.
On to A50U C63A, for which the self-cleavage is 0.
As to C51U A57G, the self-cleavage worked out at 0.17.
For A50U U87A, the self-cleavage stood at 0.1.
For the variant A50U U87C, the self-cleavage is 0.23.
Consider A50U C118U, for which the self-cleavage turned out to be 1.02.
Regarding A50U A59G, the self-cleavage is 0.04.
The same measure for A50G U100C: 0.98; for U52A A69G: 0.71.
In the case of A50U A140U, the self-cleavage is 0.92.
Turning to C51U A79G, the self-cleavage is 1.53.
For A50U U52C, the self-cleavage turned out to be 0.89.
For A50U U52A, the self-cleavage stood at 1.17.
As to U52A C99U, the self-cleavage was found to be 0.64.
As for A50U U102A, the self-cleavage worked out at 1.63.
The figure for A50U U102C is 1.17.
On to A50U G89A, for which the self-cleavage came out at 0.02.
As to U52C A57U, the self-cleavage turned out to be 0.08.
Consider U52C A57G, for which the self-cleavage worked out at 0.4.
Regarding A50G U85A, the self-cleavage is 0.05.
In the case of A50G U85C, the self-cleavage was 0.1.
Turning to C51U C145G, the self-cleavage stood at 1.28.
With A50U G54U, the self-cleavage is 0.66.
Regarding C51U A142C, the self-cleavage was found to be 1.25.
On to C51U A142G, for which the self-cleavage amounted to 1.7.
As to A50G U115A, the self-cleavage was determined as 0.95.
On to A50G U115C, for which the self-cleavage was 1.42.
